# Test results published in patent US20230272050A1, “BINDING PROTEIN SPECIFIC FOR THE SPIKE PROTEIN OF SEVERE ACUTE RESPIRATORY SYNDROME CORONA VIRUS 2 (SARS-COV-2)” (priority 2020, published 2023).
# Biological target: mutant of SARS CoV-2 S protein (69del, 70del, Y144del, N501Y, A570D, D614G, P681H, T7161, S982A, D1118H) (Severe acute respiratory syndrome coronavirus 2, UniProt P0DTC2, A570D/D1118H/D614G/DEL144-144/N501Y/P681H/S982A/T716I)
substance,measurement,value
212434 (NAAVLDIAQHSATEEIWWLPNLTKQQKVWFIMSLTQDPSVSKEVLGEAQKLNDSQAPK) [compound 212434],"binding affinity to mutant S protein (B.1.1.7), qualitative",showed binding affinity
